Experimental data reported in patent publication US5576294A, “Human Kunitz-type protease inhibitor variant” (Novo Nordisk A/S, priority 1992, dated 1996).
Like-named read-outs stand apart in the source and are kept apart here.

Experiments:
[1] = target: T1, plasma kallikrein (Homo sapiens, UniProt P03952); assay: Inhibition of serine proteinases: plasma kallikrein; format: biochemical; conditions: Example 8; enzyme 3 nM, substrate S2302 0.6 mM, 30 min incubation; read-out: Apparent Ki (nM), Pl. kallikrein
Description: (§1) KFN 1593 was purified from yeast culture medium as described in example 1. The concentration of KFN 1593 was determined using 1% E280 nm =8.3 and Mw =6500. Porcine trypsin was from Novo Nordisk (Bagsv.ae butted.rd, Denmark), bovine chymotrypsin (TLCK treated) and porcine pancreatic kallikrein was from Sigma Chemical Co (St. Louis, Mo., U.S.A.), human plasmin and human plasma kallikrein was from Kabi (Stockholm, Sweden).
(§2) Human neutrophil elastase and cathepsin G was purified from extracts of PMNs according to the method described by Baugh and Travis (Biochemistry 15 (1976) 836-843). Peptidyl nitroanilide substrates, S2251, S2586, S2266, S2302 were from Kabi (Stockholm, Sweden). M4765 and S7388 was from Sigma Chemical Co (St. Louis, Mo., U.S.A.) and FXa-1 was from NycoMed (Oslo, Norway).
(§3) Serine proteinases were incubated with various concentrations of KFN 1593 for 30 min. Substrate was then added and residual proteinase activity was measured at 405 nm.
(§4) The three TFPI (domain II) variants were purified from yeast culture medium. Their concentrations were determined from the absorbance at 214 nm using BPTI as a standard. The final concentration was determined by titration with trypsin. Porcine trypsin and human recombinant proteins, factor VIIa, activated protein C (ACP), and tPA were obtained from Novo Nordisk A/S (Bagsvaerd, Denmark), so was human thrombin. Bovine chymotrypsin and glandular kallikrein were obtained from Sigma Chemical Co. (St. Louis, Mo., U.S.A.). Truncated human recombinant tissue factor was obtained from Corvas (San Diego, Calif., U.S.A.). Human neutrophil cathepsin G was purified from extracts of PMNs according to the method described by Baugh and Travis (Biochemistry 15 (1976) 836-843). Human plasmin was from Kabi (Stockholm, Sweden), uPA was from Serono (Milan, Italy), human factor Xa was a gift from Dr. W. Kisiel (Albuquerque, N.M., U.S.A.), and human plasma kallikrein was a gift from Dr. I Schousboe (Copenhagen, Denmark).
(§5) Peptidyl nitroanilide substrates, S2251, S2302, S2266, S2586, S2288, S2444, S2366, and S2238 were from Kabi (Stockholm, Sweden). S7388 and M4765 were from Sigma Chemical Co. (St. Louis, Mo., U.S.A.) and FXa-1 was from Nycomed (Oslo, Norway).
(§6) Serine proteinases were incubated with various concentrations of Kunitz Domain variant for 30 min. Substrate (0.6 mM) was then added and residual proteinase activity was measured at 405 nm.
Target sequence in this assay (P03952 391-638 limits assumed): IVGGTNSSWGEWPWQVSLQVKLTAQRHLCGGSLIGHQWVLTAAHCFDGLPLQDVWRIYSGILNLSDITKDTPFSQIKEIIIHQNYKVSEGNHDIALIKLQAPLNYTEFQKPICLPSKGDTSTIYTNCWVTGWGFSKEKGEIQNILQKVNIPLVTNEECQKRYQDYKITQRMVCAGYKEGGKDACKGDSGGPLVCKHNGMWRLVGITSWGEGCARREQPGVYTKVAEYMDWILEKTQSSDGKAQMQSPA
Target sequence in this assay (P03952 20-390 limits assumed): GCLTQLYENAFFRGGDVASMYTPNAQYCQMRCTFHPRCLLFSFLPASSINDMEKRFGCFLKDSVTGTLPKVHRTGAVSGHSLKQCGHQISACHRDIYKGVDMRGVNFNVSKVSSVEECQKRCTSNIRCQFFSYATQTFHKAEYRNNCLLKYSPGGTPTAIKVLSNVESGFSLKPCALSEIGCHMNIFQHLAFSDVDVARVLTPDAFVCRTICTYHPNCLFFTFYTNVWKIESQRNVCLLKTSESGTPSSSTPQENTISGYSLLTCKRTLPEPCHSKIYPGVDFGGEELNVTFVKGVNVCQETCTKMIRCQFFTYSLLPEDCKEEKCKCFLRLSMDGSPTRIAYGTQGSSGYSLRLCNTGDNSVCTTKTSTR

[2] = target: T2, Human plasmin (Homo sapiens, UniProt P00747); assay: Inhibition of serine proteinases: plasmin; format: biochemical; design: human plasmin and human plasma kallikrein was from Kabi (Stockholm, Sweden); purchased Kabi (Stockholm, Sweden); conditions: enzyme 4 nM, 30 min incubation, read-out: Apparent Ki (nM), Plasmin
Description: as §1, §2, §3, §4, §5, §6
(§7) The four variants were purified from yeast culture medium. Their concentrations were determined from the absorbance at 214 nm using BTPI as a standard. Porcine trypsin was obtained from Novo Nordisk A/S (Bagsvaerd, Denmark, bovine chymotrypsin (TLCK treated) was obtained from Sigma Chemical Co. (St. Louis, Mo., U.S.A.). Truncated human recombinant tissue factor was obtained from Corvas (San Diego, Calif., U.S.A.). Human plasmin was from Kabi (Stockholm, Sweden). Human neutrophil cathepsin G and elastase were purified from extracts of PMNs according to the method described by Baugh and Travis (Biochemistry 15 (1976) 836-843).
(§8) Peptidyl nitroanilide substrates, S2251, S2586 were from Kabi (Stockholm, Sweden). S7388 and M4765 were from Sigma Chemical Co. (St. Louis, Mo., U.S.A.).
(§9) Serine proteinases were incubated with various concentrations of the variants for 30 min. Substrate ([…]) was then added and residual proteinase activity was measured at 405 nm.
Target sequence in this assay (P00747 581-810 limits assumed): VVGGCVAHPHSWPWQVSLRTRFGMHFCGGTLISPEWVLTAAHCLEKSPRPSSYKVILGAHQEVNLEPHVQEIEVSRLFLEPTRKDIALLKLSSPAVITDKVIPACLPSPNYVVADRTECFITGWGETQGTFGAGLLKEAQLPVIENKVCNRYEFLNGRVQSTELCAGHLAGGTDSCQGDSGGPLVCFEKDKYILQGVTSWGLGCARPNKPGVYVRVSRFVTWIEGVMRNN
Target sequence in this assay (P00747 97-580 limits assumed): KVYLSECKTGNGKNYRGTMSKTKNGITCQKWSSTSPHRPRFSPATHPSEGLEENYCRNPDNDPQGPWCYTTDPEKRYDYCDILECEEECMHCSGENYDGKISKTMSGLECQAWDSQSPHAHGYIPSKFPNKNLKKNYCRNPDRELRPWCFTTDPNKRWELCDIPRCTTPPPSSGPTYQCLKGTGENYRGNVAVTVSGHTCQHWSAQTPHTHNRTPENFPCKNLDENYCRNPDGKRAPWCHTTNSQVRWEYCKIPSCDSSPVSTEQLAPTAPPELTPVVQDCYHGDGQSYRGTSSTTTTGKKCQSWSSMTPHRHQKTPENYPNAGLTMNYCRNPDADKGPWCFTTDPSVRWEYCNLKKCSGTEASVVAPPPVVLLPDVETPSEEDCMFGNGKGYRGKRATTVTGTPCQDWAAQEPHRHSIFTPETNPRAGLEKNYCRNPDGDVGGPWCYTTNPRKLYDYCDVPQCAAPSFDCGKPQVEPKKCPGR

[3] = target: T3, Porcine trypsin (Sus scrofa, UniProt P00761); assay: Inhibition of serine proteinases: trypsin, peptidyl nitroanilide substrate, residual activity at 405 nm; format: biochemical; conditions: enzyme 10 nM, read-out: Apparent Ki (nM), Trypsin
T3 construct: purchased Novo Nordisk (Bagsvaerd, Denmark; the applicant itself)
T3 sequence (P00761 9-231): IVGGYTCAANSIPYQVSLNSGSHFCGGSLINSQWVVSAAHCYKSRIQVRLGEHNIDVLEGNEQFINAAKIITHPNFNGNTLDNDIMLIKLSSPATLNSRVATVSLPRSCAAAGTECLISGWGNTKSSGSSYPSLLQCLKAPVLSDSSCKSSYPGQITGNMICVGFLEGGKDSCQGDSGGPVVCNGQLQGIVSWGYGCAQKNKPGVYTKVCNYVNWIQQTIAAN
Description: as §1, §2, §3, §4, §5, §6, §7, §8, §9

[4] = target: T4, glandular kallikrein (porcine pancreatic kallikrein) (Sus scrofa, UniProt P00752); assay: Inhibition of serine proteinases: glandular kallikrein; format: biochemical; conditions: Example 8; enzyme 1 U/ml, substrate S2266 0.6 mM, 30 min incubation; read-out: Apparent Ki (nM), Gl. kallikrein
T4 construct: purchased Sigma Chemical Co (St. Louis, Mo., U.S.A.)
T4 sequence (P00752 8-246): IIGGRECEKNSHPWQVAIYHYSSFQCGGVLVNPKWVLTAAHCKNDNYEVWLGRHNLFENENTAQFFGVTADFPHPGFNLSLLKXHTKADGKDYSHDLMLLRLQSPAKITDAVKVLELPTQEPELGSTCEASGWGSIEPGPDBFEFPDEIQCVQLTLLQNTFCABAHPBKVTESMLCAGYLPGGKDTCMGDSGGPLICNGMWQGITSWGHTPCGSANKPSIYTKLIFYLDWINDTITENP
Description: as §1, §2, §3, §4, §5, §6

[5] = target: T5, Bovine chymotrypsin (Bos taurus, UniProt P00766); assay: Inhibition of serine proteinases: chymotrypsin; format: biochemical; conditions: enzyme 2.5 nM, substrate S2586 0.6 mM, 30 min incubation
T5 construct: purchased Sigma Chemical Co. (St. Louis, Mo., U.S.A.)
Description: as §4, §5, §6, §7, §8, §9

[6] = target: Human neutrophil elastase (human) (UniProt P08246)
[7] = target: Human neutrophil elastase (human) (UniProt P08246); assay: apparent Ki; 4 nM neutrophil elastase, substrate M4765, 30 min preincubation, residual activity at 405 nm
[8] = target: bovine chymotrypsin (TLCK treated) (bovine) (UniProt P00766)
[9] = target: bovine chymotrypsin (TLCK treated) (bovine) (UniProt P00766); assay: apparent Ki; 2.5 nM chymotrypsin, substrate S2586, 30 min preincubation, residual activity at 405 nm
[10] = target: Porcine trypsin (porcine) (UniProt P00761); assay: apparent Ki; 10 nM trypsin, substrate S2251, 30 min preincubation, residual activity at 405 nm
[11] = target: T2, Human plasmin; assay: apparent Ki; 4 nM plasmin, substrate S2251, 30 min preincubation, residual activity at 405 nm
[12] = target: glandular kallikrein (as used in Example 8) (Sus scrofa (Pig)) (UniProt P00752); assay: apparent Ki; 1 U/ml glandular kallikrein, substrate S2266, 30 min preincubation, residual activity at 405 nm
[13] = target: T1, plasma kallikrein; assay: apparent Ki; 3 nM plasma kallikrein, substrate S2302, 30 min preincubation, residual activity at 405 nm
[14] = target: bovine chymotrypsin (TLCK treated) (bovine) (UniProt P00766); remark: listed apart in the source
[15] = target: T1, plasma kallikrein
[16] = target: T2, Human plasmin
[17] = target: Porcine trypsin (porcine) (UniProt P00761)
[18] = target: glandular kallikrein (as used in Example 8) (Sus scrofa (Pig)) (UniProt P00752)
[19] = target: T6, Human neutrophil elastase (Homo sapiens, UniProt P08246); assay: Inhibition of serine proteinases: neutrophil elastase; format: biochemical; conditions: Example 9; for Ki: enzyme 4 nM, substrate M4765, 30 min incubation, read-out: Apparent Ki (nM), N. elastase
T6 construct: Human neutrophil elastase and cathepsin G was purified from extracts of PMNs; from tissue; host or cells: extracts of human polymorphonuclear leukocytes (PMNs), method of Baugh and Travis
T6 sequence (P08246 30-267): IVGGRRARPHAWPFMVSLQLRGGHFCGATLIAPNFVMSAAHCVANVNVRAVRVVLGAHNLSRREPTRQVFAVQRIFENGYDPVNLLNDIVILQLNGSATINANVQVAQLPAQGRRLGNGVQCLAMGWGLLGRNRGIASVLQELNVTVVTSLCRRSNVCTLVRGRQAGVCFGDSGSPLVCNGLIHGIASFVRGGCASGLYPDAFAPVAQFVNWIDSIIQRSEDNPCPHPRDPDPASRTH
Description: as §1, §2
Serine proteinases were incubated with various concentrations of KFN 1593 for 30 min. Substrate was then added and residual proteinase activity was measured at 405 nm. […]
as §7, §8, §9

[20] = target: T7, Human neutrophil cathepsin G (Homo sapiens, UniProt P08311); assay: Inhibition of serine proteinases: neutrophil cathepsin G; format: biochemical; conditions: Example 9; enzyme 50 nM, substrate S7388, 30 min incubation; read-out: Apparent Ki (nM), N. cathepsin G
T7 construct: Human neutrophil cathepsin G was purified from extracts of PMNs; from tissue; host or cells: extracts of human polymorphonuclear leukocytes (PMNs), method of Baugh and Travis
T7 sequence (P08311 21-255): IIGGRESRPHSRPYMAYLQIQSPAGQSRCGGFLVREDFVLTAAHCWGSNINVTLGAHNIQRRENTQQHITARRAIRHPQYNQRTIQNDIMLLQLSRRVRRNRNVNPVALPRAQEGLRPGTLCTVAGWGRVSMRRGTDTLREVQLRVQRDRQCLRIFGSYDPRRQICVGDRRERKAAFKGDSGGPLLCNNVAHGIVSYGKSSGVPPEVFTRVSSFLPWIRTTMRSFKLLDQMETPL
Description: as §1, §2, §3, §4, §5, §6, §7, §8, §9

[21] = target: Porcine trypsin (porcine) (UniProt P00761); remark: listed apart in the source
[22] = target: Factor Xa (as used in Example 3) (Homo sapiens (Human)) (UniProt P00742); assay: proteinase inhibition: enzyme incubated 30 min with KFN 1593, residual activity on peptidyl nitroanilide substrate at 405 nm
[23] = target: Porcine trypsin (porcine) (UniProt P00761); assay: as above
[24] = Example 8, substrate S2251 0.6 mM
[25] = Example 8, substrate S2251 0.6 mM, 30 min incubation
[26] = Example 8, read-out: Apparent Ki (nM), chymotrypsin
[27] = Example 9, substrate S2251, 30 min incubation
[28] = Example 9, read-out: Apparent Ki (nM), Chymotrypsin

[R15K, G16A, Y17R, T19I, L39R, E46K]-TFPI-2 [KFN 1868]
Ki [1]: > 100 nM | Ki [2, 24]: 3 nM | Ki [3, 25]: < 1 nM | Ki [4]: > 100 nM | Ki [5, 26]: 20 nM

[R15V]-TFPI-2 from yeast strain KFN-1898 (from UniProt P10646)
apparent Ki [6]: 0.35 nM | Ki [7]: 0.35 nM

[R15K, G16A, Y17R, T19I]-TFPI-2 [KFN 1811]
Ki [1]: > 100 nM | Ki [2, 24]: 3 nM | Ki [3, 25]: < 1 nM | Ki [4]: > 100 nM | Ki [5, 26]: 10 nM

[R15L, G16A]-TFPI-2 from yeast strain KFN-1893 (from UniProt P10646)
apparent Ki [6]: 0.23 nM | apparent Ki [8]: < 5 nM | Ki [7]: 0.23 nM | Ki [9]: < 5 nM

[R15K, G16A, Y17R, T19I, L39R, E46K]-TFPI-2 from yeast strain KFN-1868 (from UniProt P10646)
Ki [10]: < 1 nM | Ki [11]: 3 nM | Ki [12]: > 100 nM | Ki [13]: > 100 nM | apparent Ki [14]: 20 nM | apparent Ki [15]: > 100 nM | apparent Ki [16]: 3 nM | apparent Ki [17]: < 1 nM | apparent Ki [18]: > 100 nM | Ki [9]: 20 nM

[R15V, G16A]-TFPI-2 [KFN 1897]
Ki ([2]; Example 9): > 1000 nM | Ki [3, 27]: > 1000 nM | neutrophil elastase inhibition (in words) [19]: strong inhibitors | Ki [19]: 0.46 nM | Ki [20]: > 1000 nM | Ki [5, 28]: > 100 nM

TFPI-2, the second Kunitz domain of tissue factor pathway inhibitor, from yeast strain KFN-1593 (from UniProt P10646)
residual proteinase activity at 405 nm [21]: 5 nM | Ki [22]: 150 nM | Ki [23]: 5 nM

[R15L]-TFPI-2 [KFN 1928]
Ki ([2]; Example 9): > 1000 nM | Ki [3, 27]: > 1000 nM | neutrophil elastase inhibition (in words) [19]: strong inhibitors | Ki [19]: 2.2 nM | Ki [20]: > 1000 nM | Ki [5, 28]: < 5 nM
